The values below come from PMC7379511.

This assay addresses feline interleukin-31 (fIL-31) displayed on the yeast surface (pETconNK_fIL-31) (feline). The assay can be described thus: flow cytometry on cells. Background: In flow cytometry, cells or beads pass a laser one at a time.

“soluble feline oncostatin M receptor extracellular domain, Fc fusion (fOSMR-ECD)” gave a Kd of 10.3 nM, a percent decrease of the binding of biotinylated fIL31RA-1FNIII of 65% and a percent decrease of the binding of biotinylated fOSMR-ECD (itself) of 97%.

As usually defined, the Kd is a measure of binding affinity in units of concentration. Low readings indicate tighter binding, high ones weaker binding.
